Measured values: patent publication US20150258192A1, “COMPOSITIONS AND METHODS FOR PREVENTING OR TREATING CHRONIC LUNG ALLOGRAFT DYSFUNCTION (CLAD) AND IDIOPATHIC PULMONARY FIBROSIS (IPF)” (priority 2014, published 2015)
No end group written: not given here.

Assays:
Experiment in all cases: Kinase Profiling Assay
Type in all cases: biochemical
Conditions in all cases: peptide 100 μM
[1] = target: T1, PKCζ(h) (Homo sapiens, UniProt Q05513)
T1 sequence (Q05513 1-592): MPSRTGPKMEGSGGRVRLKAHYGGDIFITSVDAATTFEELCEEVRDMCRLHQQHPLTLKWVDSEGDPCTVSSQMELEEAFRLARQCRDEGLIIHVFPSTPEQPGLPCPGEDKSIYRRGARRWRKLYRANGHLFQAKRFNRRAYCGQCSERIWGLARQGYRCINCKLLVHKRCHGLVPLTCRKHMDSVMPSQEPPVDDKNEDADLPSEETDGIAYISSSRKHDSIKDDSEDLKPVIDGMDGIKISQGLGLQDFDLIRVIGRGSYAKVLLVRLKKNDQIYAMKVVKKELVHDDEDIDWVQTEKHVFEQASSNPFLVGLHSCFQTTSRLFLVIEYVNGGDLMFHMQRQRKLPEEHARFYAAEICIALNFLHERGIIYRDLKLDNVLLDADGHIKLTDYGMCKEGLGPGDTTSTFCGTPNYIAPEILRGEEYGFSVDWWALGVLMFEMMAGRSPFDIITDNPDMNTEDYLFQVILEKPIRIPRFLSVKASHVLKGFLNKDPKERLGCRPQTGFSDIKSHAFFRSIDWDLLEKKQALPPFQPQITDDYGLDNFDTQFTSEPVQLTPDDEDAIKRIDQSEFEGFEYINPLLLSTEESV
Summary of the method: (§1)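 In this 266-kinase specificity panel, every measurement was duplicated. Transfer of labeled phosphate from ATP to a cationic substrate was quantified after the substrate adhered to an anionic filter membrane and was scintillation-counted, then related to a full-activity control.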

[2] = target: T2, Hck(h) activated (Homo sapiens, UniProt P08631)
T2 construct: purchased Millipore
Summary of the method: as §1

[3] = target: T3, Met(D1246H)(h) (Homo sapiens, UniProt P08581, D1228H)
T3 construct: purchased Millipore
Summary of the method: as §1

[4] = target: T4, TSSK1(h) (Homo sapiens, UniProt Q9BXA7)
T4 sequence (Q9BXA7 1-367): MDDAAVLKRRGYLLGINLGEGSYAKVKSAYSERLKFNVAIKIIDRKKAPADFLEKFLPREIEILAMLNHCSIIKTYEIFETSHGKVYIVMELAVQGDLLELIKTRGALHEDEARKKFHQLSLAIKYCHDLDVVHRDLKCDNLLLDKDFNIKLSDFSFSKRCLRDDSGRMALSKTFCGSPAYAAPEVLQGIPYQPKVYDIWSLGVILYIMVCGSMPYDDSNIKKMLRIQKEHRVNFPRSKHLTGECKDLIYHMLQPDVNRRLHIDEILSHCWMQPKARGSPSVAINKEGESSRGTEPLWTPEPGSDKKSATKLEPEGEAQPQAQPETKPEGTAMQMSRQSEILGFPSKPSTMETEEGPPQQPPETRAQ
Summary of the method: as §1

[5] = target: T5, p70S6K(h) (Homo sapiens, UniProt P23443)
T5 construct: purchased Millipore
Summary of the method: as §1

[6] = target: T6, Itk(h) (Homo sapiens, UniProt Q08881)
T6 construct: purchased Millipore
T6 sequence (Q08881 1-620): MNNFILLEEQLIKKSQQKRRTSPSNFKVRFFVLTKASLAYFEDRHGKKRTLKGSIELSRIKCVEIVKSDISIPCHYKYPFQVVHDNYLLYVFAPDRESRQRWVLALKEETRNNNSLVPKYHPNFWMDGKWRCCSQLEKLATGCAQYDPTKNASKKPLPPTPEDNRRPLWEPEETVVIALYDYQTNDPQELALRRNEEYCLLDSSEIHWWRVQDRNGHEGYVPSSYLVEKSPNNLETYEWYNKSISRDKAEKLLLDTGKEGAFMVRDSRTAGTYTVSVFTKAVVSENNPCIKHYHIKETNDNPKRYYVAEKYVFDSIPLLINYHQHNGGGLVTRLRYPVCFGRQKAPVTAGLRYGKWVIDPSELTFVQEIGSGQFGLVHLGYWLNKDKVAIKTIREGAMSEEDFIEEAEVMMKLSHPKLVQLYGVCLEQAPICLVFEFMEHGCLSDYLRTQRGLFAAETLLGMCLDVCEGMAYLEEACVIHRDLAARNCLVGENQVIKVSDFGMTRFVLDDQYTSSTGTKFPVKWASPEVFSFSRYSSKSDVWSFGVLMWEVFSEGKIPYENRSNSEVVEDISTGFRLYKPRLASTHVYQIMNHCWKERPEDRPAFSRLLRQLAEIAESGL
Summary of the method: as §1

[7] = target: T7, GCK(h) (Homo sapiens, UniProt Q12851)
T7 construct: purchased Millipore
T7 sequence (Q12851 1-820): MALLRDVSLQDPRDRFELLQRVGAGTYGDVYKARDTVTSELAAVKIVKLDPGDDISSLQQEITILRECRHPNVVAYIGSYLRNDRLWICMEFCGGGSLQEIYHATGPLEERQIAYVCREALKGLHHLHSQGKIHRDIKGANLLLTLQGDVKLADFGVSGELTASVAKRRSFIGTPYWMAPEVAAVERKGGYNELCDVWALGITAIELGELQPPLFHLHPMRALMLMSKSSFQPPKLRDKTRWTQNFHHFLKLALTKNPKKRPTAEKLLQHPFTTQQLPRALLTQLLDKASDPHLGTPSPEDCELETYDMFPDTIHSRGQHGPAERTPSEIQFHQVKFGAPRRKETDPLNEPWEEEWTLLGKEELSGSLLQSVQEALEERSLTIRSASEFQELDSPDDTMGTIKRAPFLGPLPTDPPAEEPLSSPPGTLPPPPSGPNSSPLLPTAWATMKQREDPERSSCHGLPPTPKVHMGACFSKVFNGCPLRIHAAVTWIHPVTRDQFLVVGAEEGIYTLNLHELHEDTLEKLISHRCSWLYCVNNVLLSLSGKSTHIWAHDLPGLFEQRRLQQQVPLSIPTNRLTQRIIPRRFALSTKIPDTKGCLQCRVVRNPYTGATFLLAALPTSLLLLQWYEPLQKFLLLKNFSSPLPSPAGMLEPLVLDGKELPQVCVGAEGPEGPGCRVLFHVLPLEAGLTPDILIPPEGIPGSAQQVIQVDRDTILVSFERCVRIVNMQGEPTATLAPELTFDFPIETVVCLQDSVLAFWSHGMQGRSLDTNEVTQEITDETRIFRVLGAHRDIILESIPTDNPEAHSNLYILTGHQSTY
Summary of the method: as §1

[8] = target: TLK2(h) (Homo sapiens, UniProt Q86UE8)
Summary of the method: as §1

TLK2(h), sequence (Q86UE8 whole entry): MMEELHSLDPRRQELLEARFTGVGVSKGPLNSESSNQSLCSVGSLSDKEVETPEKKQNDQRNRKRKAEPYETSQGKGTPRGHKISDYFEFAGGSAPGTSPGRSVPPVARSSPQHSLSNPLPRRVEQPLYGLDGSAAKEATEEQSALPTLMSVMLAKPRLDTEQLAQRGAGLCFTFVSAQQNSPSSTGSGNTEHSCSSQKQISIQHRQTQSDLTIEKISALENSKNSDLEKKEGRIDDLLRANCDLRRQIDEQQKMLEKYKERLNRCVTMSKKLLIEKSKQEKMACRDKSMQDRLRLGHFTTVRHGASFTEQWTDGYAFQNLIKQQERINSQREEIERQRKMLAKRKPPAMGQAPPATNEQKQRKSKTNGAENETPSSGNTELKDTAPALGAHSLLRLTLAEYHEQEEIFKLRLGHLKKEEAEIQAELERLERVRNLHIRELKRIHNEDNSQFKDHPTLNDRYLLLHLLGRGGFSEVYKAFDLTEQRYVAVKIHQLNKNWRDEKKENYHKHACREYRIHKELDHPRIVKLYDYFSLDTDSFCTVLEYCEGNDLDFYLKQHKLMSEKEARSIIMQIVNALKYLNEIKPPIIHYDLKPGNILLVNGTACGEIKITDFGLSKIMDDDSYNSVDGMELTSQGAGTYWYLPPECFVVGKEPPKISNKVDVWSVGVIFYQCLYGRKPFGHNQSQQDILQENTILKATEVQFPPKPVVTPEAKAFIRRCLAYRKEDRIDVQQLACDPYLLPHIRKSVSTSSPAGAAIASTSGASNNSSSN
T5 sequence (P23443 whole entry): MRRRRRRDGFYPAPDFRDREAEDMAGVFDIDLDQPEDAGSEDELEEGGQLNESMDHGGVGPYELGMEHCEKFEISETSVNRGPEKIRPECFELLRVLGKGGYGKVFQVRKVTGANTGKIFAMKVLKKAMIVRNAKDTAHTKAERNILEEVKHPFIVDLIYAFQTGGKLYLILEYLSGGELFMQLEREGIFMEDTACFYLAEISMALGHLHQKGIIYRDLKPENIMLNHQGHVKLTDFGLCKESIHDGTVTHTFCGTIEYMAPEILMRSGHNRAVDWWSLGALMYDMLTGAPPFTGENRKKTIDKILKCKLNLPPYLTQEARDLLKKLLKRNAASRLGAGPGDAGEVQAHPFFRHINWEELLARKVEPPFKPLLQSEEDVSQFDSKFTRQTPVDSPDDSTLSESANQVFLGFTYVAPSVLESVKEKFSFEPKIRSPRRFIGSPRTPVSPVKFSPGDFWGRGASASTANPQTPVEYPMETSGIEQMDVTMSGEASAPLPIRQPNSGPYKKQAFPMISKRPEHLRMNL
T2 sequence (P08631 whole entry): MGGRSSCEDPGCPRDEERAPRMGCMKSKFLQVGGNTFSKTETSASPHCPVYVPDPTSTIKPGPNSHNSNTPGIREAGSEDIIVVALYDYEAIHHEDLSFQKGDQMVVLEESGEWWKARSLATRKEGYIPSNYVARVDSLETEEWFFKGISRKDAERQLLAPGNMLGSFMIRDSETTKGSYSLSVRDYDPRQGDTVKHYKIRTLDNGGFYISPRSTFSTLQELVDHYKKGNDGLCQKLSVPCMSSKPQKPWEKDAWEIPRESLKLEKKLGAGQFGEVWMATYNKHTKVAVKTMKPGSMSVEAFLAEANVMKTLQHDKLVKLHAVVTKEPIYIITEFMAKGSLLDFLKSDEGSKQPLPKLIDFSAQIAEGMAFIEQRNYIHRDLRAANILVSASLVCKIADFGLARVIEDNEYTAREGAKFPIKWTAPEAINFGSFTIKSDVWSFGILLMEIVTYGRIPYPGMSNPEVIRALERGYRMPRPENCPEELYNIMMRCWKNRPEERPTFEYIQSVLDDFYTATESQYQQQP

HRRIKAWLKKIKALARQLGVAA (Mammal) [MMI-0500]
% activity [1]: 7%
% activity [2]: 67%
% activity [3]: 150%
% activity [4]: 46%
% activity [5]: 3%
% activity [6]: 7%
% activity [7]: 30%
% activity [8]: 133%

YARAAARQARAKALNRQLGVA (Mammal) [MMI-0200]
% activity [1]: 98%
% activity [2]: 100%
% activity [3]: 139%
% activity [4]: 98%
% activity [5]: 84%
% activity [6]: 98%
% activity [7]: 99%
% activity [8]: 129%

YARAAARQARAKALARQLGVAA [MMI-0100]
% activity [1]: 82%
% activity [3]: 99%
% activity [4]: 99%
% activity [5]: 89%
% activity [6]: 99%
% activity [7]: 98%

FAKLAARLYRKALARQLGVAA [MMI-0300]
% activity [1]: 81%
% activity [2]: 82%
% activity [3]: 125%
% activity [4]: 79%
% activity [5]: 35%
% activity [6]: 77%
% activity [7]: 70%

KAFAKLAARLYRKALARQLGVAA [MMI-0400]
% activity [1]: 75%
% activity [2]: 81%
% activity [3]: 68%
% activity [4]: 79%
% activity [5]: 33%
% activity [6]: 63%
% activity [7]: 66%
% activity [8]: 151%
